# Results: PMC2980497
# Target: MutL (Escherichia coli) (UniProt P23367)
# Test: single-molecule flow-extension
# Settings: 25 mM NaCl, 0.5 mM ATP, 2.5 pN; S0.5, multiple MutL bind; smFRET: 20 mM Tris-HCl pH 7.5, 25-150 mM NaCl (25 mM standard), 0.1 mM EDTA, 3 mM MgCl2, 0.5 mM ATP, 1 mM DTT, oxygen scavenger with 2 mM trolox …
# Chain of UniProt P23367 (P23367 whole entry): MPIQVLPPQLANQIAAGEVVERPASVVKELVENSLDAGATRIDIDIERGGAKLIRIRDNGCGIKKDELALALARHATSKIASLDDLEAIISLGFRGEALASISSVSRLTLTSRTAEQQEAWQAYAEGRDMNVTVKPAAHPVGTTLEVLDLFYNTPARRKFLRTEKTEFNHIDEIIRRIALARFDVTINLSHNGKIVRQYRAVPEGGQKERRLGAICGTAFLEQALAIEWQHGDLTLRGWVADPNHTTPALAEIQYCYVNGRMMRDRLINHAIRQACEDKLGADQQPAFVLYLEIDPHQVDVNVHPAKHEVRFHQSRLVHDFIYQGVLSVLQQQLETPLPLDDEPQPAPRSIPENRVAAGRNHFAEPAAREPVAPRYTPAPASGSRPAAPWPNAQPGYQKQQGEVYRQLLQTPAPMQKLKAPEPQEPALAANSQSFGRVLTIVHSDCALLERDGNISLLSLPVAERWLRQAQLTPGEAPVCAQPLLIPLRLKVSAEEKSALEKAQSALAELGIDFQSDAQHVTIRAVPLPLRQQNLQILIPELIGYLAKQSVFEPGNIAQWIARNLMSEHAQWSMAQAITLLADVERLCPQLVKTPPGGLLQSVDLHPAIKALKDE
substance,measurement,value
5.3 kb ssDNA,K half,24 nM
